The values that follow are results of earlier work, collected in paper PMC10653114.

The target of series [1] is Asp61 (UniProt position 435, STVTQDGSAVT). The settings on record: 298 K; Conc. 0.10 (unit not given; K+/Cl–).
For series [2], the target named is Lys13 (UniProt position 14, QIAEFKEAFSL). To be noted: 298 K; Conc. 0.10 (unit not given; K+/Cl–); apo (Ca2+-free) calmodulin, per the Supplemental Methods, which build an apo model.
Series [3] deals with Lys21 (UniProt position 22, FSLFDKDGDGT). The settings on record: 298 K; Conc. 0.10 (unit not given; K+/Cl–); apo (Ca2+-free) calmodulin, per the Supplemental Methods, which build an apo model.
Series [4] deals with Lys30 (UniProt position 31, GTITTKELGTV). To be noted: 298 K; Conc. 0.10 (unit not given; K+/Cl–); apo (Ca2+-free) calmodulin, per the Supplemental Methods, which build an apo model.
Series [5] deals with Lys75 (UniProt position 76, TMMARKMKDTD). To be noted: 298 K; Conc. 0.10 (unit not given; K+/Cl–); apo (Ca2+-free) calmodulin, per the Supplemental Methods, which build an apo model.
For series [6], the target named is Lys77 (UniProt position 78, MARKMKDTDSE). The settings on record: 298 K; Conc. 0.10 (unit not given; K+/Cl–); apo (Ca2+-free) calmodulin, per the Supplemental Methods, which build an apo model.
Series [7] concerns the target Lys94 (UniProt position 95, FRVFDKDGNGY). To be noted: 298 K; Conc. 0.10 (unit not given; K+/Cl–); apo (Ca2+-free) calmodulin, per the Supplemental Methods, which build an apo model.
Series [8] deals with Asp101 (UniProt position 119, KKIVSDGNGMN). The series can be described thus: NMR (per the title of cited ref 36). To be noted: 300 K; Conc. 0.10 (unit not given; Na+/Cl–).
Series [9] addresses Asp119 (UniProt position 137, RCKGTDVQAWI). Nature of the series: NMR (per the title of cited ref 36). To be noted: 300 K; Conc. 0.10 (unit not given; Na+/Cl–).
In series [10] the target is Asp18 (UniProt position 36, KRHGLDNYRGY). The series can be described thus: NMR (per the title of cited ref 36). The settings on record: 300 K; Conc. 0.10 (unit not given; Na+/Cl–).
Series [11] deals with Asp48 (UniProt position 66, TNRNTDGSTDY). The series can be described thus: NMR (per the title of cited ref 36). The settings on record: 300 K; Conc. 0.10 (unit not given; Na+/Cl–).
Series [12] addresses Asp52 (UniProt position 70, TDGSTDYGILQ). The series can be described thus: NMR (per the title of cited ref 36). The settings on record: 300 K; Conc. 0.10 (unit not given; Na+/Cl–).
The target in series [13] is Asp66 (UniProt position 84, RWWCNDGRTPG). Nature of the series: NMR (per the title of cited ref 36). The settings on record: 300 K; Conc. 0.10 (unit not given; Na+/Cl–).
The target of series [14] is Asp87 (UniProt position 105, ALLSSDITASV). The series can be described thus: NMR (per the title of cited ref 36). The settings on record: 300 K; Conc. 0.10 (unit not given; Na+/Cl–).
Series [15] addresses Glu35 (UniProt position 53, CAAKFESNFNT). The series can be described thus: NMR (per the title of cited ref 36). To be noted: 300 K; Conc. 0.10 (unit not given; Na+/Cl–).
Series [16] addresses Glu7 (UniProt position 25, VFGRCELAAAM). Nature of the series: NMR (per the title of cited ref 36). To be noted: 300 K; Conc. 0.10 (unit not given; Na+/Cl–).
Series [17] has as its target Lys116 (UniProt position 134, WRNRCKGTDVQ). The series can be described thus: NMR (per the title of cited ref 36). The settings on record: 300 K; Conc. 0.10 (unit not given; Na+/Cl–).
Series [18] concerns the target Lys13 (UniProt position 31, LAAAMKRHGLD). The series can be described thus: NMR (per the title of cited ref 36). The settings on record: 300 K; Conc. 0.10 (unit not given; Na+/Cl–).
Series [19] addresses Lys33 (UniProt position 51, WVCAAKFESNF). Nature of the series: NMR (per the title of cited ref 36). To be noted: 300 K; Conc. 0.10 (unit not given; Na+/Cl–).
Series [20] concerns the target Lys96 (UniProt position 114, SVNCAKKIVSD). Nature of the series: NMR (per the title of cited ref 36). To be noted: 300 K; Conc. 0.10 (unit not given; Na+/Cl–).
Series [21] addresses Lys97 (UniProt position 115, VNCAKKIVSDG). The series can be described thus: NMR (per the title of cited ref 36). The settings on record: 300 K; Conc. 0.10 (unit not given; Na+/Cl–).
Series [22] deals with Asp61 (UniProt position 435, STVTQDGSAVH). To be noted: 298 K; Conc. 0.10 (unit not given; K+/Cl–).

By pKa is commonly meant the pH at which an ionisable group is half protonated. With “Highly charge-depleted protein (PDB 6QFS), S61D variant (Cellulomonas fimi (parent domain; not stated in the article); S61D (on the 6QFS charge-depleted background; background substitutions not stated))”, the pKa in series [1] is 4.15 ± 0.01.
“Calmodulin (apo) (Homo sapiens (as modelled in the article; source species of the measured sample not stated))”: the pKa in [2] is 10.23 ± 0.10; in series [3] it was 10.55 ± 0.10; in series [4] it was 10.55 ± 0.10; in series [5], 9.87 ± 0.10; in series [6], 10.55 ± 0.10; in [7], 10.55 ± 0.10.
Consider “Hen egg-white lysozyme (HEWL) (Gallus gallus)”, for which the pKa is listed as 4.09 ± 0.07 in series [8]; 3.2 ± 0.09 in series [9]; 2.66 ± 0.08 in series [10]; 1.60 ± 0.4 in [11]; 3.68 ± 0.08 in series [12]; 0.90 ± 0.5 in [13]. Moreover, the pKa in series [14] is 2.07 ± 0.15; in series [15], 6.20 ± 0.10; in series [16], 2.85 ± 0.25; in series [17] it was 10.40 ± 0.10; in [18], 10.50 ± 0.10; in series [19], 10.60 ± 0.10. For the same substance, the figures for the pKa in series [20] and in series [21] were 10.80 ± 0.10 and 10.30 ± 0.10, respectively.
Turning to “Highly charge-depleted protein (PDB 6QFS), S61D/T66H variant (Cellulomonas fimi (parent domain; not stated in the article); S61D;T66H (on the 6QFS charge-depleted background; background substitutions not stated))”, the pKa in series [22] was 4.10 ± 0.02.
